Earlier results, collected in publication PMC12193198.

Target: transferrin receptor (TfR) (Homo sapiens) (UniProt P02786)
Sequence (P02786 89-760): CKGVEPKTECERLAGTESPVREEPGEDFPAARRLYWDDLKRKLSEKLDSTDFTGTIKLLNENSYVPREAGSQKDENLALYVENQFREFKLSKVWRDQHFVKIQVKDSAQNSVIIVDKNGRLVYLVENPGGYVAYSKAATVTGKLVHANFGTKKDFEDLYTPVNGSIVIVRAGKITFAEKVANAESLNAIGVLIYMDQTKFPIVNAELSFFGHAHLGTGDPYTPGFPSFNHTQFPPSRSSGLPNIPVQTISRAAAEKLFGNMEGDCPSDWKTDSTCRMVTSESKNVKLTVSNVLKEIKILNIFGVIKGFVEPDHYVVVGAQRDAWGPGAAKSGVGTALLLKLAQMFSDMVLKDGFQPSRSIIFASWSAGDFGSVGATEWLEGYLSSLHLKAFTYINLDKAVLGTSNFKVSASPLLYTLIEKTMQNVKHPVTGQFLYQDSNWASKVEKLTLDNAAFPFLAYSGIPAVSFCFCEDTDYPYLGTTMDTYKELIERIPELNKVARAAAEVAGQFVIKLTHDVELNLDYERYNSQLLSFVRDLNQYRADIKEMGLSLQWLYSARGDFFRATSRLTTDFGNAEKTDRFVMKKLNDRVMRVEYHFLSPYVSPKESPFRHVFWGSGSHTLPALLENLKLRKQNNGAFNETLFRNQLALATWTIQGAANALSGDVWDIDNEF

Kd: 10 nM
Substance: T7 peptide
